Measurements: patent US20210403579A1 (DELINIA, published 2021)

Target: T1, Human ST2 (human, UniProt Q01638 19-328, limits assumed)
T1 construct: also called human ST2 protein; Interleukin 1 receptor-like 1
T1 sequence (looked up): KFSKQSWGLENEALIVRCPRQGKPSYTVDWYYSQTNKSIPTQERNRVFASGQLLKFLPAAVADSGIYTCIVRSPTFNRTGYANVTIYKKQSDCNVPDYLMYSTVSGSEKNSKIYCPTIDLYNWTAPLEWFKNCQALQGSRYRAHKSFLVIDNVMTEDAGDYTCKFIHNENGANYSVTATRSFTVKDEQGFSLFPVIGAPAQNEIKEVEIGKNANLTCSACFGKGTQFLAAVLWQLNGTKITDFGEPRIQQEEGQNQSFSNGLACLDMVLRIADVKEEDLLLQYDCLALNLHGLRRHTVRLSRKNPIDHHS
Assay: SPR (Carterra), antibody immobilized, ST2 analyte
Protocol: Binding of the reformatted human ST2 antibodies to the human and mouse ST2 proteins was evaluated by surface plasmon resonance (SPR), using a high throughput antibody screening and characterization platform from Carterra (Salt Lake City, Utah).

B1: Human ST2 IgG1 Antibody 41 (antibody, V domains shown)
VH: QVQLVQSGAEVKKPGSSVKVSCKASGYTFTDYQMHWVRQAPGQGLEWVGVINPGGGSTTYAQTFQGRVTITADESTSTAYMELSSLRSEDTAVYYCARGGVEYSSSWDYYYYYGMDVWGQGTTVTVSS
VL: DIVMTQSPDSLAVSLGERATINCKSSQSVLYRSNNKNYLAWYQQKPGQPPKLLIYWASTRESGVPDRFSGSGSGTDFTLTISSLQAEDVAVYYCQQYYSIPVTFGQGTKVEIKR
notes: IgG1; also called ST2 Antibody 41
  Kd: 99 nM
  koff: 0.0024 s⁻¹
  kon: 24000 M⁻¹ s⁻¹

B2: Human ST2 IgG1 Antibody 42 (antibody, V domains shown)
VH: QVQLVQSGAEVKKPGASVKVSCKASGYTFNSHWVHWVRQAPGQGLEWMGWISAYNGNTNYAQKLQGRVTMTRDTSTSTVYMELSSLRSEDTAVYYCASGDYPYYYYGMDVWGQGTTVTVSS
VL: DIQMTQSPSSLSASVGDRVTITCRASQGVANWLAWYQQKPGKAPKLLIYSASNLQSGVPSRFSGSGSGTDFTLTISSLQPEDFATYYCQQSSSFPLTFGQSTRLEIKR
notes: IgG1; also called ST2 Antibody 42
  Kd: 278 nM
  koff: 0.088 s⁻¹
  kon: 320000 M⁻¹ s⁻¹

B3: Human ST2 IgG1 Antibody 43 (antibody, V domains shown)
VH: QVQLVQSGAQVKKPGASVKVSCKASGYTFSSYYIHWVRQAPGQGLEWMGWINPHSGGTNYGQEFQGRVTMTRDTSTSTVYMELSSLRSEDTAVYYCARDSSGMGATIGYWGQGTLVTVSS
VL: DIQMTQSPSSLSASVGDRVTITCRASQSVNRRLAWYQQKPGKAPKLLIYAASTLQSGVPSRFSGSGSGTDFTLTISSLQPEDFATYYCQQGNSFPITFGQGTKVEIKR
notes: IgG1; also called ST2 Antibody 43
  Kd: 146 nM
  koff: 0.0074 s⁻¹
  kon: 51000 M⁻¹ s⁻¹

B4: Human ST2 IgG1 Antibody 44 (antibody, V domains shown)
VH: EVQLLESGGGLVKPGGSLRLSCAASGFTFSSYWMSWVRQAPGKGLEWVSAISGTAINTYYADSVKGRFTISRDDSKNTLYLQMNSLKTEDTAVYYCARVRRDSSGGGAFDIWGQGTMVTVSS
VL: DIQMTQSPSSLSASVGDRVTITCRASQGISNNLNWYQQKPGKAPKLLIYAASSLQTGVPSRFSGSGSGTDFTLTISSLQPEDFATYYCQQSYSTPPTFGQGTKVEIKR
notes: IgG1; also called ST2 Antibody 44
  Kd: 100 nM
  koff: 0.024 s⁻¹
  kon: 240000 M⁻¹ s⁻¹

B5: Human ST2 IgG1 Antibody 45 (antibody, V domains shown)
VH: QVQLVQSGAEVKKPGSSVKVSCKASGGTFSSYAISWVRQAPGQGLEWMGGIVPIFETANYAQKFQGRVTITADESTSTAYMELSSLRSEDTAVYYCARDTPNFDYWGQGTLVTVSS
VL: not shown
notes: IgG1; also called ST2 Antibody 45
  Kd: 22 nM
  koff: 0.02 s⁻¹
  kon: 920000 M⁻¹ s⁻¹

B6: Human ST2 IgG1 Antibody 65 (antibody, V domains shown)
VH: QVQLVQSGAEVKKPGSSVKVSCKASGGTFSSYAISWVRQAPGQGLEWMGGIIPIFGTANYAQKFQGRVTITADESTSTAYMELSSLRSEDTAVYYCARDNPDFDYWGQGTLVTVSS
VL: DIQMTQSPSSLSASVGDRVTITCRASQGISNYLNWYQQKPGKAPKLLIYAASSLQSGVPSRFSGSGSGTDFTLTISSLQPEDFATYYCQQSYRTPITFGQGTRLEIKR
notes: IgG1; also called ST2 Antibody 65
  Kd: 76 nM
  koff: 0.055 s⁻¹
  kon: 730000 M⁻¹ s⁻¹

B7: Human ST2 IgG1 Antibody 46 (antibody, V domains shown)
VH: EVQLLESGGGLVKPGGSLRLSCAASGFTFSSYWMSWVRQAPGKGLEWVSSISGTSNYMYYADSVKGRFTISRDDSKNTLYLQMNSLKTEDTAVYYCARDRGFLGYFDYWGQGTLVTVSS
VL: DIQMTQSPSSLSASVGDRVTITCQASQYISNYLNWYQQKPGKAPKLLIYGASTLQSGVPSRFSGSGSGTDFTLTISSLQPEDFATYYCQQSQSTPLTFGPGTKVDIKR
notes: IgG1; also called ST2 Antibody 46
  Kd: 339 nM
  koff: 0.042 s⁻¹
  kon: 120000 M⁻¹ s⁻¹

B8: Human ST2 IgG1 Antibody 47 (antibody, V domains shown)
VH: QVQLVQSGAEVKKPGSSVKVSCKASGYTFTNYYMHWVRQAPGQGLEWMGGIIPIFGTANYAQKFQGRVTITADESTSTAYMELSSLRSEDTAVYYCARGGYYDSSQFDIWGQGTMVTVSS
VL: not shown
notes: IgG1; also called ST2 Antibody 47
  Kd: 413 nM
  koff: 0.12 s⁻¹
  kon: 300000 M⁻¹ s⁻¹

B9: Human ST2 IgG1 Antibody 48 (antibody, V domains shown)
VH: EVQLLQSGGGLVQPGGSLRLSCAASEFTFSNAWMSWVRQAPGKGLEWVSTISGTSRYTYYADSVKGRFTISRDNSKNSLYLQMNSLRAEDTAVYYCARDQDGRLDYWGQGTLVTVSS
VL: DIQMTQSPSSLSASVGDRVTITCRASQNIGSWLAWYQQKPGKAPKLLIYRASTLQSGVPSRFSGSGSGTDFTLTISSLQPEDFATYYCQQSYSTPYTFGQGTKVEIKR
notes: IgG1; also called ST2 Antibody 48
  Kd: 146 nM
  koff: 0.024 s⁻¹
  kon: 170000 M⁻¹ s⁻¹

B10: Human ST2 IgG1 Antibody 49 (antibody, V domains shown)
VH: QVQLVQSGAEVKKPGASVKVSCKASGGTLSSYAISWVRQAPGQGLEWMGGISPYNGKANYAEKLQGRVTMTRDTSTSTVYMELSSLRSEDTAVYYCAIRSIAAREGVYYYYMDVWGKGTTVTVSS
VL: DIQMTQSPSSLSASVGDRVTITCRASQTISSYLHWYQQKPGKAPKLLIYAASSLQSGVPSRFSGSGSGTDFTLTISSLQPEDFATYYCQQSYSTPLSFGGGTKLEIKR
notes: IgG1; also called ST2 Antibody 49
  Kd: 269 nM
  koff: 0.085 s⁻¹
  kon: 320000 M⁻¹ s⁻¹

B11: Human ST2 IgG1 Antibody 50 (antibody, V domains shown)
VH: QVQLVQSGAEVKKPGASVKVSCKASGAAFNTVAISWVRQAPGQGLEWMGWMNPNSGNTGYAQKFQGRVTMTRDTSTSTVYMELSSLRSEDTAVYYCARTPAAAGTVYFDYWGQGTLVTVSS
VL: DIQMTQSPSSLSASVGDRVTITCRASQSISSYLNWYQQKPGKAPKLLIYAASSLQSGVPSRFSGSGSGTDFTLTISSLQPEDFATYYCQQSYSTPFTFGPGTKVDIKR
notes: IgG1; also called ST2 Antibody 50
  Kd: 213 nM
  koff: 0.075 s⁻¹
  kon: 350000 M⁻¹ s⁻¹

B12: Human ST2 IgG1 Antibody 51 (antibody, V domains shown)
VH: QVQLVQSGAEVKKPGSSVKVSCKASGGSFSRSSISWVRQAPGQGLEWMGGIIPIFGAPVYAQDLQGRVTITADESTSTAYMELSSLRSEDTAVYYCARDHPHCSSTSCYYGMDVWGQGTTVTVSS
VL: EIVMTQSPATLSVSPGERATLSCRASQTISSSYLAWYQQKPGQAPRLLIYGASTRATGIPARFSGSGSGTEFTLTISSLQSEDFAVYYCQQYGSSPLTFGGGTKVEIKR
notes: IgG1; also called ST2 Antibody 51
  Kd: 154 nM
  koff: 0.043 s⁻¹
  kon: 280000 M⁻¹ s⁻¹

B13: Human ST2 IgG1 Antibody 52 (antibody, V domains shown)
VH: QVQLVQSGAEVKKPGSSVKVSCKASGGTFSNYAISWVRQAPGQGLEWMGWISAYNGNTNYAQKFQGRVTITADESTSTAYMELSSLRSEDTAVYYCARLSTVTTRPYYYYGMDVWGQGTTVTVSS
VL: DIVMTQSPLSLPVTPGEPASISCRSSQSLLHSNGYNYLDWYLQKPGQSPQLLIYAASSLQGGVPDRFSGSGSGTDFTLKISRVEAEDVGVYYCMQGTHWPTFGQGTKVEIKR
notes: IgG1; also called ST2 Antibody 52
  Kd: 932 nM
  koff: 0.15 s⁻¹
  kon: 160000 M⁻¹ s⁻¹

B14: Human ST2 IgG1 Antibody 53 (antibody, V domains shown)
VH: QVQLVQSGAEVKKPGSSVKVSCKASGGTFSSYAISWVRQAPGQGLEWMGGIIPIFGTANYAQKFQGRVTITADESTSTAYMELSSLRSEDTAVYYCARVPADYYYYYYGMDVWGQGTTVTVSS
VL: not shown
notes: IgG1; also called ST2 Antibody 53
  Kd: 740 nM
  koff: 0.12 s⁻¹
  kon: 160000 M⁻¹ s⁻¹

B15: Human ST2 IgG1 Antibody 54 (antibody, V domains shown)
VH: EVQLLESGGGLVQPGGSLRLSCAASGFTVSSNYMSWVRQAPGKGLEWVSAISGSGGSTYYADSVKGRFTISRDNSKNTLYLQMNSLRAEDTAVYYCARGRFGSRDVWGKGTTVTVSS
VL: not shown
notes: IgG1; also called ST2 Antibody 54
  Kd: 81 nM
  koff: 0.029 s⁻¹
  kon: 360000 M⁻¹ s⁻¹

B16: Human ST2 IgG1 Antibody 55 (antibody, V domains shown)
VH: QVQLVQSGAEVKKPGSSVKVSCKASGGTFSSYAISWVRQAPGQGLEWMGDIIPVIDTTNYAQKFQGRVTITADESTSTAYMELSSLRSEDTAVYYCARASGYPFGRWFDPWGQGTLVTVSS
VL: not shown
notes: IgG1; also called ST2 Antibody 55
  Kd: 349 nM
  koff: 0.1 s⁻¹
  kon: 300000 M⁻¹ s⁻¹

B17: Human ST2 IgG1 Antibody 56 (antibody, V domains shown)
VH: EVQLLESGGGLVKPGGSLRLSCAASGFTFSSYAMSWVRQAPGKGLEWVSSISSDSYYKYHADSVKGRFTISRDDSKNTLYLQMNSLKTEDTAVYYCAKGADYDFWSGYLDYWGQGTLVTVSS
VL: DIQMTQSPSSLSASVGDRVTITCRASQGISSYLAWYQQKPGKAPKLLIYRASTLQSGVPSRFSGSGSGTDFTLTISSLQPEDFATYYCQQSYNTPWTFGQSTKVEIKR
notes: IgG1; also called ST2 Antibody 56
  Kd: 970 nM
  koff: 0.14 s⁻¹
  kon: 150000 M⁻¹ s⁻¹

B18: Human ST2 IgG1 Antibody 57 (antibody, V domains shown)
VH: QVQLVQSGAEVKKPGASVKVSCKASGYTFTGYYMHWVRQAPGQGLEWMGVINPSGGSTSYAQKFQGRVTMTRDTSTSTVYMELSSLRSEDTAVYYCARGDYYYGSGSDYYYYYGMDVWGQGTLVTVSS
VL: DIQMTQSPSSLSASVGDRVTITCRASQGVTSWLAWYQQKPGKAPKLLIYAASTLQSGVPSRFSGSGSGTDFTLTISSLQPEDFATYYCQQANSFPLTFGGGTKVEIKR
notes: IgG1; also called ST2 Antibody 57
  Kd: 140 nM
  koff: 0.072 s⁻¹
  kon: 510000 M⁻¹ s⁻¹

B19: Human ST2 IgG1 Antibody 58 (antibody, V domains shown)
VH: EVQLLESGAEVKKPGSSVKVSCKASGGTFSSYAISWVRQAPGQGLEWMGGIIPIFGTANYAQKFQGRVTITADKSTSTAYMELSSLRSEDTAVYYCARPRLAVAGGWYFDLWGRGTLVTVSS
VL: DIQMTQSPSSLSASVGDRVTITCQASQDISNYLNWYQQKPGKAPKLLIYAASSLQSGVPSRFSGSGSGTDFTLTISSLQPEDFATYYCQQSFSSTPTFGQGTKLEIKR
notes: IgG1; also called ST2 Antibody 58
  Kd: 628 nM
  koff: 0.14 s⁻¹
  kon: 220000 M⁻¹ s⁻¹

B20: Human ST2 IgG1 Antibody 59 (antibody, V domains shown)
VH: EVQLLESGGGVVQPGRSLRLSCAASGFTFSSYWMSWVRQAPGKGLEWVSSISSDSSYKYYADSVKGRFTISRDNSKNTLYLQMNSLRAEDTAVYYCARDGLRWDAFDIWGQGTMVTVSS
VL: not shown
notes: IgG1; also called ST2 Antibody 59
  Kd: 1000 nM
  koff: 0.19 s⁻¹
  kon: 190000 M⁻¹ s⁻¹

B21: Human ST2 IgG1 Antibody 60 (antibody, V domains shown)
VH: QVQLVQSGAEVKKPGASVKVSCKASGYTFTDHYLHWVRQAPGQGLEWMGIINPSGGYTSHAQKFQGRVTMTRDTSTSTVYMELSSLRSEDTAVYYCARDRFRELLGSRYYGMDVWGQGTTVTVSS
VL: DIQMTQSPSSLSASVGDRVTITCRASQDLSNHLAWYQQKPGKAPKLLIYAASTLQSGVPSRFSGSGSGTDFTLTISSLQPEDFATYYCQQYHDWPLTFGQGTKVEIKR
notes: IgG1; also called ST2 Antibody 60
  Kd: 1100 nM
  koff: 0.12 s⁻¹
  kon: 110000 M⁻¹ s⁻¹
